First the molecules themselves.
B1: HA (influenza hemagglutin antigen)-tagged MPK4 (protein)
chain: YPYDVPDYAYPYDVPDYAYPYDVPDYAYPYDVPDYAYPYDVPDYAYPYDVPDYAMSAESCFGSSGDQSSSKGVATHGGSYVQYNVYGNLFEVSRKYVPPLRPIGRGAYGIVCAATNSETGEEVAIKKIGNAFDNIIDAKRTLREIKLLKHMDHENVIAVKDIIKPPQRENFNDVYIVYELMDTDLHQIIRSNQPLTDDHCRFFLYQLLRGLKYVHSANVLHRDLKPSNLLLNANCDLKLGDFGLARTKSETDFMTEYVVTRWYRAPELLLNCSEYTAAIDIWSVGCILGETMTREPLFPGKDYVHQLRLITELIGSPDDSSLGFLRSDNARRYVRQLPQYPRQNFAARFPNMSAGAVDLLEKMLVFDPSRRITVDEALCHPYLAPLHDINEEPVCVRPFNFDFEQPTLTEENIKELIYRETVKFNPQDSV
B2: WRKY25 as prey (AD fusion) (other, Arabidopsis thaliana, UniProt O22921 1-393, looked up, not shown: large carriers)
chain: MSSTSFTDLLGSSGVDCYEDDEDLRVSGSSFGGYYPERTGSGLPKFKTAQPPPLPISQSSHNFTFSDYLDSPLLLSSSHSLISPTTGTFPLQGFNGTTNNHSDFPWQLQSQPSNASSALQETYGVQDHEKKQEMIPNEIATQNNNQSFGTERQIKIPAYMVSRNSNDGYGWRKYGQKQVKKSENPRSYFKCTYPDCVSKKIVETASDGQITEIIYKGGHNHPKPEFTKRPSQSSLPSSVNGRRLFNPASVVSEPHDQSENSSISFDYSDLEQKSFKSEYGEIDEEEEQPEMKRMKREGEDEGMSIEVSKGVKEPRVVVQTISDIDVLIDGFRWRKYGQKVVKGNTNPRSYYKCTFQGCGVKKQVERSAADERAVLTTYEGRHNHDIPTALRRS
notes: Library clone; also called transcription factor WRKY25
B3: MPK5 as prey (AD fusion) (other, UniProt Q39025 127-376, looked up, not shown: large carriers)
chain: MDTDLHQIIRSNQSLNDDHCQYFLYQILRGLKYIHSANVLHRDLKPSNLLLNSNCDLKITDFGLARTTSETEYMTEYVVTRWYRAPELLLNSSEYTSAIDVWSVGCIFAEIMTREPLFPGKDYVHQLKLITELIGSPDGASLEFLRSANARKYVKELPKFPRQNFSARFPSMNSTAIDLLEKMLVFDPVKRITVEEALCYPYLSALHDLNDEPVCSNHFSFHFEDPSSTEEEIKELVWLESVKFNPLPSI
B4: WRKY29 as prey (AD fusion) (other, UniProt Q9SUS1 1-304, looked up, not shown: large carriers)
chain: MDEGDLEAIVRGYSGSGDAFSGESSGTFSPSFCLPMETSSFYEPEMETSGLDELGELYKPFYPFSTQTILTSSVSLPEDSKPFRDDKKQRSHGCLLSNGSRADHIRISESKSKKSKKNQQKRVVEQVKEENLLSDAWAWRKYGQKPIKGSPYPRSYYRCSSSKGCLARKQVERNPQNPEKFTITYTNEHNHELPTRRNSLAGSTRAKTSQPKPTLTKKSEKEVVSSPTSNPMIPSADESSVAVQEMSVAETSTHQAAGAIEGRRLSNGLPSDLMSGSGTFPSFTGDFDELLNSQEFFSGYLWNY
notes: mature
B5: MKS1 as bait (BD fusion), MKS1-BD (other)
chain: MKLLSSIEQACDICRLKKLKCSKEKPKCAKCLKNNWECRYSPKTKRSPLTRAHLTEVESRLERLEQLFLLIFPREDLDMILKMDSLQDIKALLTGLFVQDNVNKDAVTDRLASVETDMPLTLRQHRISATSSSEESSNKGQRQLTVSMDPSEYFAGGNPSDQQNQKRQLQICGPRPSPLSVHKDSHKIKKPPKHPAPPPNRDQPPPYIPREPVVIYAVSPKVVHATASEFMNVVQRLTGISSGVFLESGGGGDVSPAARLASTENASPRGGKEPAARDETVEINTAMEEAAEFGGYAPGILSPSPALLPTASTGIFSPMYHQGGMFSPAIPLGLFSPAGFMSPFRSPGFTSLVASPTFADFFSHIWDQD
notes: also called MKS1 bait; MAP Kinase Substrate 1
B6: C1-MKS1 truncation (amino acids 1-196), two-hybrid construct (other, not shown: large carriers)
chain: MDPSEYFAGGNPSDQQNQKRQLQICGPRPSPLSVHKDSHKIKKPPKHPAPPPNRDQPPPYIPREPVVIYAVSPKVVHATASEFMNVVQRLTGISSGVFLESGGGGDVSPAARLASTENASPRGGKEPAARDETVEINTAMEEAAEFGGYAPGILSPSPALLPTASTGIFSPMYHQGGMFSPAIPLGLFSPAGFMSP
B7: N1-MKS1, N-terminal truncated form (amino acids 55-222), two-hybrid construct (other)
chain: DQPPPYIPREPVVIYAVSPKVVHATASEFMNVVQRLTGISSGVFLESGGGGDVSPAARLASTENASPRGGKEPAARDETVEINTAMEEAAEFGGYAPGILSPSPALLPTASTGIFSPMYHQGGMFSPAIPLGLFSPAGFMSPFRSPGFTSLVASPTFADFFSHIWDQD
notes: also called N-terminally deleted MKS1; not shown: GAL4 BD or AD fusion partner
B8: C3-MKS1 truncation (amino acids 1-73), two-hybrid construct (other, not shown: large carriers)
chain: MDPSEYFAGGNPSDQQNQKRQLQICGPRPSPLSVHKDSHKIKKPPKHPAPPPNRDQPPPYIPREPVVIYAVSP
B9: C2-MKS1 truncation (amino acids 1-123), two-hybrid construct (other, not shown: large carriers)
chain: MDPSEYFAGGNPSDQQNQKRQLQICGPRPSPLSVHKDSHKIKKPPKHPAPPPNRDQPPPYIPREPVVIYAVSPKVVHATASEFMNVVQRLTGISSGVFLESGGGGDVSPAARLASTENASPRG

Series [1] has as its target T1, Pep22, synthetic peptide corresponding to amino acid residues 13-35 of MKS1.
T1 chain: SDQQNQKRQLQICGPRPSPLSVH

In series [2] the target is T2, histidine-tagged C1-MKS1 truncation (amino acids 1-196).
T2 chain: B6 chain

Series [3] has as its target T3, histidine-tagged C3-MKS1 truncation (amino acids 1-73).
T3 chain: B8 chain

Another series concerns the target T4, Flg22 peptide.
T4 chain: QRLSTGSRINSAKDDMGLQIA

In series [4] the target is T5, histidine-tagged C2-MKS1 truncation (amino acids 1-123).
T5 chain: B9 chain

In series [5] the target is T6, recombinant, full-length histidine-tagged MKS1.
T6 chain: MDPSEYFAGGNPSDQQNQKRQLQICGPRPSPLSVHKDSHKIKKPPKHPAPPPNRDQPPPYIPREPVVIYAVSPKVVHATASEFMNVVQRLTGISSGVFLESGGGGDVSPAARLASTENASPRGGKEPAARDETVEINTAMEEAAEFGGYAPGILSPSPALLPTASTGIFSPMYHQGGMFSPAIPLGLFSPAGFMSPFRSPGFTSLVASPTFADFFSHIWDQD

Another series concerns the target T7, MPK4 as bait (BD fusion) (Arabidopsis thaliana, UniProt P04386 1-147; Q39024 1-376).
T7 construct: also called MPK4 bait
The series is described as follows: directed yeast two-hybrid assay.

Series [6] addresses B5. Nature of the series: directed yeast two-hybrid assay.
Description: (§1) Yeast cells in the two hybrid screen were selected on the indicated nutrient depleted growth-media (-Histidine; -Leucine; -Adenine-Tryptophan) and assayed for β-galactosidase (β-gal) reporter gene activity.
(§2) To test the specificity of the MAP kinase interaction, the interaction of MKS1 with other plant MAP kinases was tested in the yeast two-hybrid assay.
(§3) The specificity of MKS1 interaction with WRKY transcription factors was examined in directed yeast two-hybrid assays with WRKY26 and WRKY29.
The next series addresses T8, MPK3 as prey (AD fusion) (UniProt Q39023 1-370).
T8 sequence (looked up): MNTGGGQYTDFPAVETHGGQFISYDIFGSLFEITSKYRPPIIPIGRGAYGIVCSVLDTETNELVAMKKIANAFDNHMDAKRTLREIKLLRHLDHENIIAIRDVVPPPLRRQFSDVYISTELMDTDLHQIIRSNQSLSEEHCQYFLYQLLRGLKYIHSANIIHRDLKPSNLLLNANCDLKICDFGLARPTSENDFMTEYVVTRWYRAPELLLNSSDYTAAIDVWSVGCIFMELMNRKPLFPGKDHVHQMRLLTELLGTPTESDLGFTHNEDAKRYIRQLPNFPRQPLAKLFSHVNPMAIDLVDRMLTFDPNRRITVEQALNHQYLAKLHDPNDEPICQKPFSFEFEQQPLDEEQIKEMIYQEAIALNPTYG
The series is described as follows: directed yeast two-hybrid assay.

The next series deals with MPK6 as prey (AD fusion) (UniProt Q39026 1-395). Nature of the series: directed yeast two-hybrid assay.
Chain of MPK6 as prey (AD fusion) (Q39026 whole entry, the tested form may be a part): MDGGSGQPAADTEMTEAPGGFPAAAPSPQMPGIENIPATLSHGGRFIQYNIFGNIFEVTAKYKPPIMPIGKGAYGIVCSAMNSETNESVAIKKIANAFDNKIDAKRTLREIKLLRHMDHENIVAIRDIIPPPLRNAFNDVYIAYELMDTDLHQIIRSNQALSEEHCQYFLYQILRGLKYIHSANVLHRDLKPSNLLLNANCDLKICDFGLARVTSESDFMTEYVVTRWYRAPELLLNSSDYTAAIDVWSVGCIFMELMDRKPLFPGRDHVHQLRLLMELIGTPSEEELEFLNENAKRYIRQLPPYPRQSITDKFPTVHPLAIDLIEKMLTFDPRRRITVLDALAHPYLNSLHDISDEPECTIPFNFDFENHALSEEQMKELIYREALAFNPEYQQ
Series [7] addresses T9, MPK17 as prey (AD fusion) (UniProt Q84M93 1-486, limits assumed).
T9 sequence (looked up): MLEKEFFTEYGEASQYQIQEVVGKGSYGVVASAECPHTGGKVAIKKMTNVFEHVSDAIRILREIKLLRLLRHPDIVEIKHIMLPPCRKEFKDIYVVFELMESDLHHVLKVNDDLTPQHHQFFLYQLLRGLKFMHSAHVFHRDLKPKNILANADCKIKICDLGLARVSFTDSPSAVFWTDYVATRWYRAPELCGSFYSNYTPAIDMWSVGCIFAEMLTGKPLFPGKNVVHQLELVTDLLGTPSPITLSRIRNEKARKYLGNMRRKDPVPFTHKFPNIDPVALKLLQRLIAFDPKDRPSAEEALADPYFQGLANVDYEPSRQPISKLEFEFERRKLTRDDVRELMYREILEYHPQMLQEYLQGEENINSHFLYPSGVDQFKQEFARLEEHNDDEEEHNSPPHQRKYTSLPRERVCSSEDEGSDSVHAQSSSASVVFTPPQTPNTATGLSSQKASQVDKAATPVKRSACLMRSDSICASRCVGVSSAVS
The series is described as follows: directed yeast two-hybrid assay.
Description: as §1, §2, §3

In the next series the target is T10, MPK4 as prey (AD fusion) (Arabidopsis thaliana, UniProt Q39024 1-376, limits assumed).
T10 construct: Used in the directed two-hybrid assay with MKS1 as bait; also called MPK4 prey
T10 sequence (looked up): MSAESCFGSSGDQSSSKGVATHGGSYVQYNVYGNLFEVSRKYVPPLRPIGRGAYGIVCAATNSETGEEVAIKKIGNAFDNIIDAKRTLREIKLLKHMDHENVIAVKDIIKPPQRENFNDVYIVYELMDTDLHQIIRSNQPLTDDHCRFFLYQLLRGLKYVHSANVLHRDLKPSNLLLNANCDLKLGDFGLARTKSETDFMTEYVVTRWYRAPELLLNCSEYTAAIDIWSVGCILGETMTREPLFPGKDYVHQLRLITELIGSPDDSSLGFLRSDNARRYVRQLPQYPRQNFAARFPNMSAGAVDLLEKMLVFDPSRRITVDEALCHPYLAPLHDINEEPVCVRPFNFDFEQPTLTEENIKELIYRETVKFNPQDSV
The series is described as follows: yeast two-hybrid assay.

In series [8] the target is T11, WRKY33 as prey (AD fusion) (Arabidopsis thaliana, UniProt Q8S8P5 332-519, limits assumed).
T11 construct: The library hits were five different truncated WRKY33 proteins; also called W33; transcription factor WRKY33
T11 sequence (Q8S8P5 332-519 limits assumed): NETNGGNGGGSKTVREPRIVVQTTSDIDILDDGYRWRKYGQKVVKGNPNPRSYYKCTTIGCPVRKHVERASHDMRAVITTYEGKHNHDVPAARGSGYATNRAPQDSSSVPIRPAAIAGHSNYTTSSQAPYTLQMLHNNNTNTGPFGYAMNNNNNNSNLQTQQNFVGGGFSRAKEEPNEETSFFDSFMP
The series is described as follows: yeast two-hybrid assay.

Description for MPK3 as prey (AD fusion): as §1, §2, §3
Description for MPK4 as bait (BD fusion): as §1, §2, §3
Description for MPK6 as prey (AD fusion): as §1, §2, §3

Consider B1, for which the “competition of MKS1 phosphorylation by MPK4 in vitro” value was “Pep22 is an efficient competitor of full-length MKS1 for phosphorylation by MPK4, when added to the in vitro assay in a molar ratio of 1:1 (Pep22:MKS1)” in series [1] and “the FIG. 22 peptide did not compete MKS1 phosphorylation” with Flg22 peptide. The “in vitro phosphorylation assay (32P-γ-ATP, SDS-PAGE, phosphorimager)” value in series [2] is “HA-tagged MPK4 readily phosphorylated both full-length and C-terminal MKS1 truncations, including C3 MKS1”; in [3], “HA-tagged MPK4 readily phosphorylated both full-length and C-terminal MKS1 truncations, including C3 MKS1”; in series [4], “HA-tagged MPK4 readily phosphorylated both full-length and C-terminal MKS1 truncations, including C3 MKS1”; in series [5] it was “HA-tagged MPK4, immunoprecipitated from Arabidopsis plants, is shown to in vitro phosphorylate MKS1 as efficiently as myelin basic protein”. In the case of B2, the binding result with MPK4 as bait (BD fusion) is “no binding”. Turning to B3, the binding result in [6] is “no binding”.

For the molecule B4, the binding result in series [6] is listed as “no binding”.

Regarding B5, the binding result (with MPK3 as prey (AD fusion); with MPK6 as prey (AD fusion); in series [7]) was “no binding” in each case. In the case of B6, the binding result in the series with MPK4 as prey (AD fusion) was “binds”. For B7, the binding result with MPK4 as prey (AD fusion) is reported as “no binding”. On to B8, for which the binding result was “no binding” in series [8] and “binds” with MPK4 as prey (AD fusion). In the case of B9, the binding result in the series with MPK4 as prey (AD fusion) was “binds”.
